Data taken from article PMC5705181 (Science (New York, N.Y.), 2017).

How the values were obtained:
P5C reductase = P5C reductase (Clostridioides difficile, UniProt Q180C5); assay: spectrophotometric assay; format: biochemical; conditions: mere turnover
purified protein [1] = substrate: O=C(O)[C@@H]1C[C@@H](O)CN1; assay: purified protein; format: biochemical, Clostridioides difficile; conditions: activated by t4LHypD-AE, SAM, acriflavine; anaerobic
purified protein [2] = substrate: C[C@H](O)CO; assay: purified protein; conditions: activated by PD-AE, SAM, 5-deazariboflavin; anaerobic
purified protein [3] = substrate: C[C@@H](O)CO; assay: purified protein; conditions: activated by PD-AE, SAM, 5-deazariboflavin; anaerobic

## O=C(O)[C@@H]1CCC=N1 [Δ^1-pyrroline-5-carboxylate]
P5C reductase; NADH as reductant in the coupled assay
  spectrophotometric assay: P5C reductase could interconvert P5C and L-proline

## O=C(O)[C@@H]1CCCN1 [L-proline]
P5C reductase; reverse direction (interconversion with P5C)
  spectrophotometric assay: P5C reductase could interconvert P5C and L-proline

B1: t4LHypD (trans-4-hydroxy-L-proline dehydratase, GRE Cluster 15) (Clostridioides difficile) (protein)
chain: MARGTFERTKKLREESINAEPHISIERAVLMTEAYKKYEGSVEIPVLRALSFKHYIENRTLSINDGELIVGEKGDSPNGAPTYPEICCHTMEDLEVMHNRDIINFSVSEEARKIHKEEIIPFWKKRQTRDKIINAMTPEWLAAYEAGMFTEFMEQRAPGHTVCGDTIYKKGFLDLKKDIEARLKELDFLNDLDAYNKKADLEAMAIACDAMVILGKRYAEKARQMAEEETDEAKKKDLLLIAETCDVVPAHKPETYHQAIQMYWFVHIGVTTELNIWDAFTPGRLDQHLNPFYERDVENGILDRDRAQELLECLWVKFNNQPAPPKVGITLKESSTYTDFANINTGGINPDGQDGVNEVSYIILDVMDEMKLIQPSSNVQISKKTPQKFLKRACEISRKGWGQPAFYNTEAIVQELMEAGKTIEDARLGGTSGCVETGCFGKEAYVLTGYMNIPKILELTLNNGYDPISKKQIGIETGDPRNFQSYEELFEAFKKQLHYMIDIKIEGNAVIENICAKHMPCPLMSTIVDDCIEKGKDYQRGGARYNTRYIQGVGIGTITDSLTAIKYNVFDKKKFDMDTLLKALDANFEGYEAILNLVSNKTPKYGNDDDYADEIMQEIFNAYYNEVTGRPTVCGGEYRVDMLPTTCHIYFGEIMGASPNGRLCAKPVSEGISPEKGGDTNGPTAVIKSCAKMDHIKTGGTLLNQRFAPSVVQGEKGLDNMANLVRAYFNMDGHHIQFNVFDKNVLLEAQKNPQDYKDLIVRVAGYSDHFNNLSRTLQDEIIGRTEQTF
Purified protein [1]
  Km: 1.2 ± 0.1 mM
  kcat: 45 ± 1 s⁻¹

B2: PD (propanediol dehydratase, GRE Cluster 16) (Roseburia inulinivorans) (protein)
chain: MGNYDSTPIAKSDRIKRLVDHLYAKMPEIEAARAELITESFKATEGQPVVMRKARAFEHILKNLPIIIRPEELIVGSTTIAPRGCQTYPEFSYEWLEAEFETVETRSADPFYISEETKKRLLAADAYWKGKTTSELATSYMAPETLRAMKHNFFTPGNYFYNGVGHVTVQYETVLAIGLNGVKEKVRKEMENCHFGDADYSTKMCFLESILISCDAVITYANRYAKMAEEMAEKETDAARRQELLTIARVCKNVPEFPAESFQEACQSFWFIQQVLQIESSGHSISPGRFDQYMYPYYEKDLKEGSLTREYAQELIDCIWVKLNDLNKCRDAASAEGFAGYSLFQNLIVGGQTVQGRDATNDLSFMCITASEHVFLPMPSLSIRVWHGSSKALLMRAAELTRTGIGLPAYYNDEVIIPALVHRGATMDEARNYNIIGCVEPQVPGKTDGWHDAAFFNMCRPLEMVFSNGYDNGEIASIQTGNVESFQSFDEFMEAYRKQMLYNIELMVNADNAIDYAHAKLAPLPFESCLVDDCIKRGMSAQEGGAIYNFTGPQGFGIANVADSLYTIKKLVFEEKRITMGELKKALEMNYGKGLDATTAGDIAMQVAKGLKDAGQEVGPDVIANTIRQVLEMELPEDVRKRYEEIHEMILELPKYGNDIDEVDELAREAAYFYTRPLETFKNPRGGMYQAGLYPVSANVPLGAQTGATPDGRLAHTPVADGVGPTSGFDISGPTASCNSVAKLDHAIASNGTLFNMKMHPTAMAGEKGLESFISLIRGYFDQQGMHMQFNVVDRATLLDAQAHPEKYSGLIVRVAGYSALFTTLSKSLQDDIIKRTEQADNR
Purified protein [2]
  Km: 8 ± 1 mM
  kcat: 1500 ± 100 s⁻¹
Purified protein [3]
  Km: 44 ± 4 mM
  kcat: 330 ± 40 s⁻¹
